We go through 3 substances from article PMC13270198.

Series [1] has as its system Cas12a2 (SuCas12a2) (Sulfuricurvum sp. PC08-66). The experiment in a line: competition (cleavage inhibition). The settings on record: phosphorothioate (non-cleavable); Fluorescence anisotropy: 25 mM HEPES pH 7.2, 150 mM KCl, 2 mM MgCl2, 5 ug/ml BSA, 10 nM probe, read at 30 min; temperature not stated.
Series [2] has the same test system. Description: fluorescence anisotropy. The conditions noted are these: phosphorothioate (non-hydrolyzable); Fluorescence anisotropy: 25 mM HEPES pH 7.2, 150 mM KCl, 2 mM MgCl2, 5 ug/ml BSA, 10 nM probe, read at 30 min; temperature not stated. For orientation: Fluorescence polarisation rises when a labelled molecule tumbles more slowly, as on binding a larger partner.

“And” between values parts separate entries of the source, which are not always exact repeats. Equal entries are not always repeated.

Turning to PT-ssRNA inhibitor, the Ki (usually the dissociation constant of the complex between target and ligand, obtained from inhibition or displacement) in series [1] is 610 nM and 110 nM.

As to PT-ssDNA inhibitor, the Ki in series [1] was 120 nM and 90 nM and 50 nM.

On to PT collateral ssRNA, for which the Kd – broadly, the equilibrium constant for the complex coming apart – in series [2] was 6.7 nM and 37 nM and 19 nM.
